Literature values, collected in publication PMC2994244.
Like-named read-outs stand apart in the source and are kept apart here.

What was measured:
ACP (Escherichia coli) [1] = target: ACP (Escherichia coli) (UniProt P0A6A8)
ACP (Escherichia coli) [2] = target: ACP (Escherichia coli) (UniProt P0A6A8); remark: listed apart in the source

Sequence of UniProt P0A6A8 (P0A6A8 2-78): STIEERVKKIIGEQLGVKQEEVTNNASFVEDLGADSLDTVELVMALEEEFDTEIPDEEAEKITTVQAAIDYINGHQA

KASI (from UniProt P0A953)
Kd (ACP (Escherichia coli) [1]): 180 nM

KASII (from UniProt P0AAI5)
Kd (ACP (Escherichia coli) [2]): 70 nM
